Experiment: soluble on expression in E. coli; label from the status in PepcDB or PDB records

Sequence | soluble on expression in E. coli
MLELKSDDREYTANMLLLNDTDKTVKHKTVGEFYQDLIKQYANESKCGNRLIYKSSYNSLYTFTKGNLDIPFSAINPSWLCNYEKWLRSKGNKETTMSLMLRTLRSTYNKAIENKYARKSDYPFNEYKIGKFDVSTEKRAIAKADIMKLTADISSVGKRQYVQLSKDIFMFSYLCGGINFTDIANLTSKNIVDGKRLHYIRQKTGKLIKLGLSDAALRIIERYAPDSHGYLFPILNVEVHKTALQKQNRIHKILSKVNSNLKLIATQSGLDINLTTYVARHSFATVLKKSGVNIALISEALGHSDLATTQIYLDSFDNEQIDDAMKNLL | not soluble
MGSDKIHHHHHHMTITTQSLPVVRRHTIHFLEKAKNSQAVYLSTDIDASRIQEVKRRYEQASIKISYISFLLFAISRAIEVFPEVNSSVQGRWHLKRWQFSTIDAKVTLDKLAGQERMVVSSVIPETNKKSLLAIQDEINELKIASFETSDRFQSIRKLQRLPLWIGRIIYRKILQNPITWQQTQGSFTITSLGHVPIQSFFPITTNTVCFGVGSIRECAVVREGQVVVRPMLPLSMTFDHRAIDGALASEFLYRIKQNVEEWEVEAWEDDQKNQAMM | not soluble
MAHHHHHHMQQQQQVPVGLQLMRQPYRATAEQFQRFIVGLDAVLNQWTALHLVSQHCDLSALTSMYRELVSWFQKDGEVYSDDLEIFFENFFGEARSVIVEDDSMKEVGDVLHDMYCRCCQNDFSTVERYVASLEVYRRVNPVQLSMNVGGADDEDELAGAGAMSNTYDGVVGNEEEEMETMGDGLDMKDEVEESEQRKKRRSKKRKNAYERDADGWCVVRN | not soluble
MGSDKIHHHHHHEIFSEITTDNYYQNSNNIYAALVNNYAKAFSTGWSDARYFLQEVTADQLMIPTRGKHGYNGGEYVRLHEHKWTVEENFVYNGWAAPFQGIALCNNTLSDFENLDFSTFKLTEETKNEYIAELRALRVWNYMFLIDFFRHVPIVTDIEEVKAQSTPLEVFNFMESELLAILPDLPKNRGVSRFDQAGVASILVRLYLNAEKWIGISKYDECEQMAQAILDGKYGEYSIDPDYRGPFRSGINGYRSKENIMEFAIKKNYFEASWLYNMWMHYQDRYSLDNDWQGWNGGNLAPSRDLYGNLYQDKLGMPFEKFPDGDIRKKAFRVISNDGDYEGFFLMGTQYKFDYEKGYGFTDEVITGTEEYNGKPLVYVDQVGRFSEGETGLAKGSHVIYGEENTGYRLIKFPWLPQSKDLFQMNSIPEIRLAEIYYSLAECKYRSGDKIGAARLLDVVRKRYYKAEDWSKFSYESNISKLTDDEFVDELGREFIGERHRRIDLIRWNRFSEGAWWDKTPDATNQDVFPIPYRALNANPLLKQTTAGF | not soluble
MTRPLIVAAVIGSALAWHGSAQAQHSQAVAPAEPCTPVVLIERTGTCYAQVDPRFVTTLYFPRMVTSAVSSDERYFRASIVDDSVIVRPARDIDADALGNLSITAGEMKVSIMLGVAGHSSEVLPQIDFRALSEAEVFDARVAAEAERLHQDVKREYERRHRELEGEVTREATQLVGERLLQRHEPVRIDAIARNDDNVIVRVERGVWVGHELYLFFTVQNRSGTPYRVTHVGVFEESEHRAVADAGRAGQVEFDSAAPLVAGLLGTVRVDQFGRGVVHVRDARGAAGRRMTLRVSEERGERPVSVGGLSWR | not soluble
MAAAAVSSAKRSLRGELKQRLRAMSAEERLRQSRVLSQKVIAHSEYQKSKRISIFLSMQDEIETEEIIKDIFQRGKICFIPRYRFQSNHMDMVRIESPEEISLLPKTSWNIPQPGEGDVREEALSTGGLDLIFMPGLGFDKHGNRLGRGKGYYDAYLKRCLQHQEVKPYTLALAFKEQICLQVPVNENDMKVDEVLYEDSSTA | soluble
MAHHHHHHMSGENIKNLLAPQPTVDQGPYSGKYEKRMVDLPKPTYSTFYNKNKEFDSTHPRYFKQRDAVIGPIVNDTVDPKNFLRTGQGIKHIVPPVPHKKQHRKDFLDCGDIRKRTQGAMEPADQQQKESSGMGGMGSLANTNGVGGQAGDGIREHDMSSNDPERKGEQANGGDTGLRGTGNVESAVGSCDNKNNFQGAATGDNGRCHLNSLDRSRCKKDFVTSNIIDVDNMVPKRRKDQPEDPTRRKTFGRVPGYIGRVKEVIEKERMQLKAIGEARTNNRLERVGKFVYRLDEQERLNMISKLRAKLTEKGAELNRMPFAKDTYIQMKRKSDLEKRIKEIESSLEKLEKDAVFIYSDDPRVVHWTKDAAFEEARLFASD | not soluble
MFSENLKKCRKQKKLTQQNMADKLGITRPAYTAYELGSREPDYKTLINISNILDVSLDYLLKGESNEKVFQDEAKKVLNDPETFLAAKDGEVTDEILQAALEIITEQLKERRKSDK | not soluble
MIITEKRHELILEELSHKDFLTLQELIDRTGCSASTIRRDLSKLQQLGKLQRVHGGAMLKENRMIEANLTEKLATNLDEKKMIAKIAANQINDNECLFIDAGSSTLELIKYIQAKDIIVVTNGLTHVEALLKKGIKTIMLGGQVKENTLATIGSSAMEILRRYCFDKAFIGMNGLDIELGLTTPDEQEALVKQTAMSLANQSFVLIDHSKFNKVYFARVPLLESTTIITSEKALNQESLKEYQQKYHFIGGTLLEHHHHHH | soluble
MGSDKIHHHHHHMILVLFYRTTKSHQTHSRHMSVNTTELSIEIIDIVSDRDGARLRDIVEEVDVAKSTAHKHLTTLRDSGFLVKRGEIYQVGLRFLNYGEQARSRWPGYPHIEEAIAALTERTEEECDFVAPDRGRVITIAESYHKWAKFEGTTTDGPSKEYRARTGSYYHMHATASGLAVLSTYSKSRVEDVIERWGLPARTDHTITSREELHAELEQIRERGYAVDDQGYTDGMRSIGKAVHGPEGDVIGALSVSGPTYRVDGMVLEQEVPNALRDVVDELEERLRTTN | not soluble
GSRNHCPHLDSVGEITKEDLIQKSLGTCQDCKVQGPNLWACLENRCSYVGCGESQVDHSTIHSQETKHYLTVNLTTLRVWCYACSKEVFLDRKLGTQ | soluble
MGSDKIHHHHHHMTTQFACSGIELELFRYPSQQASNLQAWDAADEHLVKYLIDTEITATTTAILNDNFGALTCALTMQYPHSELLVETDAKTSLLGYQQNLLHNKLASTNIHWLNSRETLPQNIQLVLMKLPKNLHYFGQQLARLSTVLPAGTQILIGAKAKSINPALLASIEKNLGPASASLAWKKTRVISCISDGKKRSLAKAVSWNVDELKLTISNLANVFAANKLDIGARIMLDNMPKGEFKHIIDLGCGNGILGLHAKQCYPNAQIHFVDDSDMAIASAKHNWQANELDTPSQDLQSQDPQTEQMPQAFFHWDDCLSNLPADVEPDLVICNPPFHQGEAITDHIAWQMFVDAHKRLKKGGLLHIVGNRHLAYHVKINRIFKNCTTVASNGKFVILQAIK | not soluble
MGSDKIHHHHHHMTNEQDPKQNHLLSVLPEAEWARISPHLVRIDMPLGQVIYESGDRLHHVYFPTTSIVSLLYVMEDGSSAEIAIVGNEGLIGIALFMGGETTPNRAIVQSAGEAYRLDARILKQEFHRAGPVQRLLLRYTQALITQMAQTAVCNRHHSIDQQLCRWLLLSLDRLPSNELRMTQELIANMLGVRRSGVTEAALKLQDAGLIRYSHGHIEVLDRPGLEKRVCECYNVVKQEFDRLLPDLKAL | not soluble
MISWEIEELDREIGKIKKHSLILIHEEDASSRGKDILFYILSRKLKSDNLVGMFSISYPLQLIIRILSRFGVDVIKYLENHRLAIVDTFGSFHGIKATMPGVWYLEGMLSSETLPIKYAKAVEDHKKVWMDLNLFEGRELYGFAISMSGYLEVFTPEETLRYLETSAEVRYGHPAYKKYPRGTNFWLWEGVKDKRVLLSVYRRADYVLKTRSSLGENGIKRELLVIKTPKPIEELVRFEYEFKGNEPKLRRVD | soluble
MSLAPPVRSLHIGTVAGFTADPQHLDRIAIHLPALNLPDSLIFARLSKPWASHASGFCFYPEPGDEVVVGFIDSDPRYPMILGALHNPKNTAPFPPDEKNNRKGLIVSQADQTQALMIDTEEKTLRLMAGDNTLTLTGEGNLTMSTPNALQLQADTLGLQADSNLSIAGKQQVEITSAKINMKEGHHHHHH | soluble
GIQVRDCMIPRNEMIACELQTDIEVLKTTFIDTGLSKIIIYRQNIDDVVGYIHSSEMFRGQDWQKRINTTVFVPESMYANKLMRLLMQRKKSIAIVIDELGGTAGMVTLEDLVEEIFGDIEDEH | not soluble
MEAGFVSIGDVTFRDLEDEAIVELVRKGNTDALEYLIHKYKNFVRAKSRSYFLVGADREDIVQEGMIGLFKAIRDYKEDKLSSFKAFAELCITRQIITAIKTATRQKHIPLNSYVSLDKPIYDEESDRTLLDVISEAKVTDPEEMIISQEEYTDIESKISELLSDLERKVLSLYLDGRSYQEISEQLNRHVKSIDNALQRVKRKLERYMEMRESTTLNS | not soluble
MSRRVATITLNPAYDLVGFCPEIERGEVNLVKTTGLHAAGKGINVAKVLKDLGIDVTVGGFLGKDNQDGFQQLFSELGIANRFQVVQGRTRINVKLTEKDGEVTDFNFSGFDVTPADWERFVNDSLSWLGQFDMVCVSGSLPAGVSPEAFTDWMTRLRSQCPCIIFDSSREALVAGLKAAPWLVKPNRRELEIWAGRKLPEMKDVIDAAHALREQGIAHVVISLGAEGALWVNASGEWIAKPPAVDVVSTVGAGDSMVGGLIYGLLMRESSEHTLRLATAVAALAVSQSNVGITDRPQLAAMMARVDLQPFN | not soluble
MIQIVRDNFPGLETAEQLEDYKKTVIKNIERKTALFTKSDNGNIVGVLIFSYYSKCLSCMAVHPDYRKMGIGYAMVKKMIDLFPKDMDISVTTFREGDLKGVAPRAPYKKIGFLEDEFVEEFNYPHQKFIFRNRP | not soluble
MAGRLREMRCELSFLKNADGSACFSQGATCIWASCSGPGDVHASKASDEAMTLDISYRANCGDNKFNVLNNIIHSTLSNAINLELFPHTTISVTVHGIQDDGSMGAVAINGACFALLDNGMPFETVFCGVLIVRVKDELIIDPTAKQEAASTGRVLFSVCKGSDGHPEVCAMDAIGHWDFIQLEAAWSLAQPSASAIFDFYKTVMKRKLSVDEQ | not soluble
MRQYVCCNYNEKEIKMKKFHFTDTSLFWGFSEEEAESVLKCLSAVNKTYKKDEYIFRMGDTITSVGMVLTGSVQVIREDYWGNRQIIAVMGEGQLFGESYACAGGEPLMVSVMAEENTEVLFLEVGRLLTVCSMACRFHSRVIQNLLKVIAGRNLTLTTKIDHMSKKTIREKVLSYLSYQAEKQGKNRFEIPFNRQQLADYLAVDRSALSAELSKMQKEKLISYDRNHFILP | not soluble
MSLTVERVSAPTPAAFVDAANAAFRNGAVLSVQARCEVEYNGRTSGYLGDGDRLLVAKPDGTFLVHQPTGHKPVNWMPGGGTVEARTSQGDAVLLARRSNPTERVETRLHEVYGVTRFDAEDGATYEESGTEAEMHEYIEANPDALEAGLRIVEHERETKYGFIDFYAVDGDGTPVVIEVKRIQATLNHFDQLKRYVDRYAETNDDVRGMLVAPSASERVTRALRDNGLEFVALAEFGLDAKGATEAKLTDFEGHHHHHH | soluble
MYREFYGLTEKPFSKTPDPRYLFLSRGHREALARLQYAVEERELALLTGDIGCGKTTISRALMDAVGNDGCFCFIVNPRLSAVEFLRTVARSLGIAEPAAAKDELLRQLTEAVYRLEGEKRCPVIIIDEAQLIPDQEVFDEIRLLTNFQLDDRNLMSVILMGQPELRQILSEPAHEALRQRIAMHYHLQPLSLEETLEYVDFRVEVAGGPQGLFSPDAIRRIYELSGGVPRKINILATNALLVGFGKDSAWIDASLVEELRDEASLYLEHHHHHH | not soluble
MNKKNKFFDIYLELEQDITSGVYPAGTLLPSENVLAKRFSVSRETIRKALVLLLENGCIQKLQGKGSIVIDRERYSFPVSGLTSFKELQKSEQMNATTEVIRNEETTLPDRIADFAGLPHGSNCLAILRVRYLEGEATILDYDYLLDKTEPIANEILEDSLYQYLENEKGYEISYAQKEITVEPLNAEDKKYLALHGDTHVVVVKSTVFLKDTTLFQYTESRHRLDKFRFIDFARRR | not soluble

— the DeepSol protein solubility set
